The values that follow come from article PMC4669970 (Biochemical pharmacology, 2015).

For one data set, the target named is human BChE (Homo sapiens, UniProt P06276). The data set can be described thus: Inhibition of BChE-catalysed ghrelin hydrolysis by BChE-specific inhibitors. The format is biochemical. The conditions noted are these: parallel assays, modest concentrations of inhibitor.
For data set [1] the following is noted: humans; cited from earlier work.
For data set [2] the following is noted: rats; cited from earlier work.
Data set [3] in a line: Tissue distribution of [^3H]-ghrelin after i.v. bolus in DFP-pretreated mice. The conditions noted are these: as E30.

Where two headings read alike, the source gives them in different places. No end group written: not given here.

human BChE, sequence (P06276 29-602): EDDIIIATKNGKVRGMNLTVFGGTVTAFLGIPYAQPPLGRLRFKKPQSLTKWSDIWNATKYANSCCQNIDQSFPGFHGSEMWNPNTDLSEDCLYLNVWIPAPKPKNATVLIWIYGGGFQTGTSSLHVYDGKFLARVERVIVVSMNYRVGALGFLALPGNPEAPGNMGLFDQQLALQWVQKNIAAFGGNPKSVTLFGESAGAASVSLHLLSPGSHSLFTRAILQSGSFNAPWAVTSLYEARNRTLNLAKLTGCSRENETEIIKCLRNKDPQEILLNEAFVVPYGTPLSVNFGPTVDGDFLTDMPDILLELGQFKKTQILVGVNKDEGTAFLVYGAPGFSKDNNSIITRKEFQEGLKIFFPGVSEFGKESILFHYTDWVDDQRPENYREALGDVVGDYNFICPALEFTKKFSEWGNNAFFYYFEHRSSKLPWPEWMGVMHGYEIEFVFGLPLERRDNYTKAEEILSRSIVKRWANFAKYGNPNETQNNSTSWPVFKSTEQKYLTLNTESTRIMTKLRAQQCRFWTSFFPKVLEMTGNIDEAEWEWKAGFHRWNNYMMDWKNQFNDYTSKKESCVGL

As to `CCN(CC)C(C)CN1c2ccccc2Sc2ccccc21` (stereo not drawn) [ethopropazine], the “effect on BChE ghrelin hydrolysis reactions” value at human BChE is “stopped those reactions completely”.

Turning to “ghrelin (GSS((3H)n‑octanoyl)FLSPEHQRVQQRKESKKPPAKLQPR; also: tritium label on the octanoyl group (tracer form); UniProt Q9UBU3 24-51, looked up)”, the circulating half-life in data set [1] is 8 to 13 min. For the same molecule, in data set [2], the circulating half-life is on record as 8 min. For the same molecule, in data set [3], the “time of peak concentration in liver” value came out at 6 min, the “time of peak concentration in pancreas” value came out at 12 min and the “time of peak concentration in spleen” value is given as 12 min.
